Data set [1] concerns mice subjected to neonatal HI injury. Kind of data set: Open field after neonatal HI injury. It counts as in vivo, mouse. The following applies: P50, 3 days treatment. Here is the method:
In the short-term study (3 days of intranasal treatment), 3 groups of WT mice were used; animals subjected to neonatal HI injury and treated with either C3a (HI-C3a, n=18) or PBS (HI-PBS, n=18) and sham-operated animals treated with PBS (SHAM-PBS, n=19). These mice were tested in an open field and object recognition test (ORT) at P50-P54 and brains were collected at P55 (FIG. 8A).
Purified human C3a (Complement Technology Inc., Tyler, Tex., USA) was diluted in sterile phosphate buffered saline (PBS) to a concentration of 200 nM, and a total of 8 μl i.e. […] (4 μl/nostril; corresponding to ca. 2.56 μg/kg body weight) of peptide solution or PBS was given intranasally to awake and hand-restrained mice held in a supine position. Solutions were administered through a pipette tip, drop-wise in 2 μl-portions divided by 1 min intervals to allow for absorption. […] C3a or PBS was given every 24 hours for three (short-term study) or seven (long-term study) days starting 1 h after HI induction, i.e. between P9 and P11 or P9 and P15, respectively. Mice in each litter were randomly assigned to C3a or PBS treatment. Sham animals received PBS. […]
The activity of each animal on the first day of habituation to the object recognition test apparatus was recorded as an open field task to study locomotor and exploratory activities (Leke et al., 2012). […]

The subject of the next data set is Iba-1+ cells. Put plainly: Iba-1 positive cell density in dorsal hippocampus after neonatal HI. It counts as in vivo, mouse. The following applies: P55, 3 days treatment after HI. Here is the method:
On P51 (long-term study) or P55 (short-term study), mice were deeply anesthetized with thiopental [Pentothal Sodium (0.01 ml/g body weight), Hospira, Ill., USA)] and transcardially perfused with 0.9% saline, followed by 4% paraformaldehyde (PFA) in 0.1 M PBS. Brains were removed and post-fixed in 4% PFA at 4° C. for 24 h followed by 70% ethanol for 24 h. Tissue was processed using an automatic tissue processor (SAKURA Tissue Tek VIP 3000, Tournai, Belgium) and embedded in paraffin. Brains were cut at room temperature into 8-μm serial coronal sections using a sliding microtome (Microm HM 450, Thermo Scientific, Massachusetts, USA), attached to silane coated slides and dried at RT. […]
NeuN positive cells, GFAP positive relative area, as well as GAP-43, SYN, and VGLUT1 positive puncta were counted by using MetaMorph software (ver. 7.8.6, Molecular Devices, CA, USA) on confocal images obtained with a 20× (NeuN and GFAP) or 63× (GAP-43, SYN, and VGLUT1) objective (Carl Zeiss LSM 700 Laser Scanning Microscope, Jena, Germany). Iba-1 positive cell somata were counted on bright field images obtained with a 20× objective (Nikon Eclipse 80i). […]

A further data set has as its system serum carboxypeptidases. The following applies: systemically administered C3a; cited from earlier work.
Another data set concerns microglia and astrocytes. As to conditions: in vitro; cited from earlier work.

As for “C3a: Purified human C3a peptide (Complement Technologies), C3a receptor agonist, amino acid sequence SEQ ID NO: 1”, in data set [1], the “anxiety-like behavior (centre distance and time, rearing, grooming)” value is “anxiety-like behavior was not induced”; the “general exploratory and locomotor activities (speed, activity, locomotion time, distance)” value is “did not affect general exploratory and locomotor activities”. Further, the “density of Iba-1+ cells, ipsilateral vs contralateral” value with Iba-1+ cells is recorded as “did not differ between the hemispheres”. The stability in serum entry in the data set with serum carboxypeptidases is on record as “rapid inactivation by serum carboxypeptidases”. Also, the NGF expression entry in the data set with microglia and astrocytes is recorded as “induces upregulation of neural growth factor (NGF)”.

The values above are taken from patent US11266715B2, “C3A receptor agonists for use against ischemic brain injury, stroke, traumatic brain injury, spinal cord injury and neurodegenerative disorders” (priority 2016, dated 2022).
